Assay: soluble fraction after stress (log2 fold change); higher = more stays soluble; pooled small domains, quantitative proteomics
Settings: stress: pH 4
In short: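 Following acid stress at pH 4, the amount of each small protein domain still soluble was measured in pooled custom libraries by high-throughput quantitative proteomics. Its fold change, on a log2 scale, is higher when more of the domain stayed soluble. This fold change is taken as a measure of aggregation propensity.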

Sequence | soluble fraction (log2)
HMKDANIQIGKRLREARLNMNLEKSEIADVLGVTVEHYRKLEAGVMGISVDKVLTLYHKYGIDPTYLITG | -0.712
HMHLKRQEAINLGAYLLGAELRIHRLSLEELGSERIDEMLAAINYKTLDDLLADIGLGNRPARFVARQLG | -1.65
HMEASSTAIQAMIRRLIDDENPRKPLSDAKLADLLKSSGIPVARRTVAKYREAMNISASHERVRI | 0.17
HMATVHVDGIQYDFSSPEQAKEFAYKWAKKHNLTWEVHGETIHIK | -0.0405
HMESNDSNIEDDFYEGLKSMRKGDLKMSVVFFTRVIEKKPTFAEAWNRRATVYYMLGKFDKSMFDINETLK | -0.17
HMGRWQPSTSAKQHGESALLLERLLHLERLTVSEAFHVLTINHRLNLSLPEYRSLLAVVQLPK | -1.31
HMPNNNDIVLDRVSFGYHEKEVLHGIDMTIREGTVNALVGPSGSGKSTIAKLIAGLWDVDGGSISF | 0.137
HMDFGMPEELQKKLDKMPALKAAFEALTPGRQRGYIFYFSQPKQSKTRELRIEKSIEQIMNGKGLND | 0.199
HMSAGKKSFTNSEFRRFLDALGEGLIVKHKKLGEGVVVEIRGDKAVIQFGDEQRLYELKTLYEYDLLR | -0.874
HMSGTESMIEGRGEARTAIDGEGKVFFQGEYWTAQSDQFIPQGAKVRIKKVEGLNLIVEEIK | -0.796
HMVGLKWYDTGNKKPPIGTEYKNTELSEALKGHDRKEFTWKELDVLGVNITDKEQYIVVGENYYTQV | 0.22
HMGLLVPELTAEENVSLAAMIAGVPRQQARSISADLLNRLGLGQMLDRRMGEMSGGQAQRVAIAPIYGKF | -0.129
HMTSNKTVPYSELKGLISTGKIEYVGIGNTQIRAVSKSGAGIVTYTARRVIPDDTLIPELEKNGIAYGGI | 0.112
HMGSGQIRYITENTVRVVYGTSKENEFVFQDGKPYPKDTPYHIHYTRNLEEYFMSGVEHDKNSKIILKVD | -0.792
HMFAQDQLFKKDNSKVDVKILEINTTEIKYKLFTYQDGPTITVAKKDVALIIYQNGVHEVIT | -1.17
HMPESETIMVDVKGAVQSEGVYELPSTARVNDAIEAAGGFSDQADKKSVNLAQKLSDEAVVYVASQGENV | -0.28
HMYELSDTEWKIIEQVGLGASNKEIAASLHFSEGTIRNYLSVILDKLSLRDRTQLAILYVKMN | -0.122
HMYINVQNARTIASFRSSLWRMHRDFTNQGYITADGLKTFLEMGKLYEDAGGNDIYHSKLLPEITALEIKY | -0.421
HMKQLNKRQDDILSLAEKEGYVSVENLAKTFTVSQQTIRRDINYLSDHEFLVRTHGGAFYSSG | -0.288
HMPIDIEPVLQWIRDNSIDGIGPARSMYHSAAAAAGLPSYSSLQLRKWTWPLLLDAAGVQRR | -0.265
HMVPTYEAYVGKEGLVVGTLRPAGTAEFDGERLDVVSEGEYLEAGTRVQIVRTEGRRIVVRKIN | -0.233
HMKNTYTVVSGDTLWGIASRKLGGGSNWTKIYDANAATIESVANRRRGGRGSDHGHWIYPGTVLTI | 0.216
HMQTTITITNTVTGQKAQFPPPFNPMSLSKIGVDETFEKEVFVDGVDTFGYGLDGYLTFYELKDFLRSYQ | -2
HMGNIIITPNPASDFIKIISNSPIIKFGFYDIYGNTINKKFNDNSINISDLPVGMYLINLNERYFKLLK | 0.021
HMDIEHREMKLQKLVITADSPLVGKTLKESNVRQRYNFMVVGVEEGQKNLTMINPNRRFEVGDIVWVVGEE | -0.204

Sequence | soluble fraction (log2)
HMNVKVSVDDIARPGLMASGRVTFADGNRGMWYVDEMGRLGIDPEVEGYQPSEADIQAFQRELQSVMES | -0.927
HMQETIDVAALRVGMFVHLDLGWLAHPFPLSSFRISSEDQISTIRALGLKRVRWSSQHSELG | -1.27
HMPAVVEFDVKPRGEVLVDGIWYGRIPELREVELRPGRHHLRVQNAGHPSLDLVVTLEPGERMTVTHTFA | -0.33
HMFTKYSPDFKLSVILDMRKNNLGYGEVVRKYWNLDSYKESDRHRSQVRLWERIFLEEGVEGFM | -1.77
HMHEGNWTLPNPMPIGTTLTLPEHSRLYISNLAGQRVFETSATSVEIPLLPKGTYLLRLETMNGHTTRKIL | 0.00873
HMEEITLIAEDEGLRLDTWLTDKLKDYSRSYIQKLMEDELVLVNGKARKANYRIKTGDEIHVSIPEPE | -0.507
HMAVSSYSVKRYIRNMIQAEDPSAPFSDEALRLALLAHGIAVSRRVVTKYRMAMDIPSSSQRRKR | -0.12
HMSTFTPYLVKVTTSVLNIRKGAGTNYGTNGSIRDMGTYTIVAEADGQGASKWGKLKSGAGWISLDYTKK | 0.184
HMAIKNKNEQLEAIIKFADLRGEFKTADIEELLSIKSSRARLLISELVKIGKLESIGSNRNRRYHIK | -0.302
HMSRDYKTELQERLQVNGPVKIEYQVIAEDESKPSFKVQLLVNDKKISEGQGRNKKAAEQQAAQAAL | 0.0788
HMPEVYSFEVNEGAAGKRLDIFLSGEIEGLTRSFIQKLISEGMATVNQEPPRASYRVKTRDLVELQIPDPE | -0.309
HMENDPYEILGIARSASDDEIKAKYRALTRENHPDILMAKGVPQEFIDLANEKMAVINAAYDKIEKER | 0.12
HMSINTIIAKNLNRLRNERNLSLGQLAELSGVSKVMLSQIEKGDSNPTVNTIWKIASGLNVPYTAILDQP | 0.22
HMGFAPEAAREEVAQLIGQRGRAVTVLRPSGQVEIAGRRFEATVEVGAVDAGDTIVVRGQTAFALLVEKAD | 0.0812
HMAGASQAVKAQLRLREMILAGELPGGARIAELTLVEKLGVSRTPIRAALMRLEQEGLLHRLPGGGYAVRT | -0.41
HMIDKIRYPELIMKLAHQQGGTIKRRDVEQLLHLQTKQAYRELSKLVDAGELVSVGRGPGAHYEVS | -0.0885
HMELGWYVRLRRRELGLSVTALAEKAGMSQSYLSQIETGDRGNPSPESLRSLAEALEVSPRELESLV | 0.286
HMLRTLSTSEFAEAIGISESSARRLADSGDLRIRRTKGGHRKIPAEEAIRYAREIQATVVRPDLLGLST | -0.151
HMDRSAQVLFLEHARSRLPQRIQWAEELAELLSIGIDSAYRRIRGETALTFNEAVSVSRKYDISLDYLFK | -1.4
HMATKEQIKRIYGLGAGLGIVGKDKDDMLHELIFSITGKDSVKQLDDSEFKAVQAELINRMKLA | -0.111
HMDEILHHPSYRAIYEYMLDHKHVKTKDIAALLNVKEPRARQLLKEMIDKHFIIALGSNRNREYELL | 0.348
HMTPESSLHSGLGKILHDALTAKIQLTNFEAKFLSDMQSKYDLNGSFSWLSSKQQTTLEKILAKYGR | 0.0478
HMISAADLQTYLKGMDYPAGREDLVAHAQRNNAPESVITILQGFSDRTYRSAAEVSEEFGRE | -0.371
HMSGNPLDTYYSKWSAEIKKGSPNAVISKEGDKYYVSIPGENRMAIIYENPHLIRMVNATRNIHVE | 0.0911
HMAAPLTDRETEVLTLLARGLINKQIAEELHIGLTTVITHRRNIMEKLRVRSLAELILRAVAAGYVDAGR | -0.78

Sequence | soluble fraction (log2)
HMDTIYPFNPNFIDDYKGYVLGLNTNEIDRLLKYRSKGNWINSAEDFKKVTGIDDALLNKLSKSFKFPDWL | -0.991
HMKISDMIETNLKFLRGKHSISQAELAESLGIPRTTLSAYERGFVEPNIELMLKMAKYFNVSLDDLIAYN | -1.3
HMAQSEDLMVMAQRILGGPEAQSFFQAEATRQGLAGFLPEPIPDFLQRLERKLSGSVGSATAHAMVAQTMG | -0.279
HMLDSGNPILPYKLSLLANVDIRTVRNAISAGELVAFKSEFDGEVYVENGSARRWLHGRRGFKPTLK | -0.772
HMQMEISQRIKLERQTLKWTQEELADKIFVSKRTISNWETGRTVPDIESVLRLAKVFHVSLEDLLL | -0.021
HMLQKEVHQQIQQALRALPYHQRTAIVLYYYEGMSVKEIAQATGSMQGTVQSRLFFARKKLRPILESILKK | -2.39
HMPLSVRQRMSDILSNLKTSDFTNFADLFDPKEGRTGITVTFIAILELLREFLIEVVQSDHYQPLHVRAAS | 0.115
HMRILDFPALKTEFDQLTKDLMAKYPEDGADRVRAIIETVLGPGKKVGALQPHQAELLAEVNTSLKANL | -0.0969
HMTPNATWQDDAQSLLRDLIQHQPVLIQISAAKRLRDQAEQISRITGGDTVTRDHVEAAGHALGMGVT | -0.39
HMDGPGDRLLIAIQENSMTQKKFAQLIGMSPNGLNSIIKGKKRLSRVLAIATERLTGVRADWILQNEQPK | -0.244
HMGSLRSALDGIPGIGEQYQKRLLAQFGSVKAMRSASVEDFEAVRGIGRAKAQALYDALHAG | 0.13
HMNQEQQSAVMSALKATLPDLEAALEARQFKESKQLLKTAQNQFQQLDGRNRRGFQARIQLLAGQFRELS | -0.00484
HMTDLQNDIQAFNLKKMSYQHETKKLEEKRNPEKLEKLEQDIQALYLRIMENPNMRAFDSAKQALYLQIM | -1.55
HMSQLYINATDDGWVIGNLPADAREVLLTTLGGQVVARYHVTAPSLRVKAPRKGVYIVSVETA | -0.0877
HMETGNEDYRVGKELAYDGNYKAATIYLMKSIKDDPNNPDAFNMLGFSHRKLGNNDEAYIYYNKALEL | -0.722
HMESILDDFPGLGEKRKKALLEHFGSISKIKAATVGQLREVDGIGFETAAALREFLDANFPA | 0.0668
HMDPEEETLKNMQRMLQDSGPLKKTEFSLLAKSLGIAEKKARKLIDRGRGRFWTVESGEQKNTQLVTPIQ | -0.261
HMKDYQGNILIQSEGDRIDKFLFKYFNSFSRTKIKNHIINGNILVNDKNTIPAYVLKINDKISYDLSTSVK | -0.877
HMVSRAFEEETVKRAESGNQEAALFALELAIREIEHSYEKSKIIDYFVSKVRLFLDNGVSLERALGIH | -0.0689
HMSLPAYIKISEVIARRINAGQILAGDRLPNERTMAVEFGVAVGTLRKALYHLQVRGLVTRKHGSGNYINK | 0.249
HMVDETDVPTFTDMTLEEAQNEAKQRNLKLEITESPSDKEKDTILEQDPEPGKTVASGSTVKLTVSNGEE | 0.138
HMYSMSAPMPGVILEIKVAPGDQVNKGDVVMVLEAMKMKNDLHAARTGTVESIDINSGEQVKYGQVLLRFV | 0.0869
HMSQYVPDPVLNAALVGYLDFRKQAGKPMTDYSIRLLLVDLAKLSGNPQEQAAILDQSTKNNWIGVYALG | -0.326
HMEDGEVTVPDLRGLTIKEAGTILEKLGLHLSPVGTGLAVRQDVAPGSKVARDTTITVEFEPPDIQVLR | -0.259
HMTRQKEAILALLTDSRGEALSASELLARLTRSGSSIGRTTVYRLLSQLVDDGVVRAWRDASRGITLYELS | -0.44
